Data as given in the supplement of paper PMC10567573.

B1: MIA2 (parent)
chain: NSISSDKEATVPCTEILTEKKDTI
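Further: lentivirally expressed fusions sorted by FACS into six bins by GFP to DsRed ratio, PSI derived from sequencing read proportions per bin multiplied by bin number.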

Variants of: B1
Test: protein stability index of a GFP-peptide fusion (GPS, HEK-293T) (PSI 1-6); higher = more stable
Conditions: c terminus: a fixed tail appended
With NSISSDKEATVPCTEGLTEKKDTI [I16G] the protein stability index was 5.11.
For NSISSDKEATVPCTEHLTEKKDTI [I16H], the protein stability index was 5.49.
Work on NSISSDKEATVPCTEALTEKKDTI [I16A] yielded a protein stability index of 5.53.
Work on NSISSDKEATVPCTELLTEKKDTI [I16L] yielded a protein stability index of 5.51.
Variant NSISSDKEATVPCTESLTEKKDTI [I16S] has a protein stability index of 5.41.
For NSISSDKEATVPCTEPLTEKKDTI [I16P], the protein stability index was 5.52.
In the case of NSISSDKEATVPCTEELTEKKDTI [I16E], the protein stability index is reported as 5.62.
With NSISSDKEATVPCTEKLTEKKDTI [I16K] the protein stability index was 5.64.
In the case of NSISSDKEATVPCTEWLTEKKDTI [I16W], the protein stability index is reported as 5.26.
Variant NSISSDKEATVPCTEIRTEKKDTI [L17R] has a protein stability index of 5.45.
Variant NSISSDKEATVPCTEIITEKKDTI [L17I] has a protein stability index of 5.34.
For NSISSDKEATVPCTEICTEKKDTI [L17C], the protein stability index was 5.51.
Work on NSISSFKEATVPCTEILTEKKDTI [D6F] yielded a protein stability index of 4.84.
With NSISSWKEATVPCTEILTEKKDTI [D6W] the protein stability index was 4.62.
NSISSSKEATVPCTEILTEKKDTI [D6S] showed a protein stability index of 5.71.
Work on NSISSDKEATVPCTEILTEKKDII [T23I] yielded a protein stability index of 5.09.
NSISSDKEATVPCTEILTEKKDGI [T23G] showed a protein stability index of 5.5.
NSISHDKEATVPCTEILTEKKDTI [S5H] showed a protein stability index of 5.47.
NSISRDKEATVPCTEILTEKKDTI [S5R] gave a protein stability index of 4.71.
With NSISQDKEATVPCTEILTEKKDTI [S5Q] the protein stability index was 5.43.
For NSISPDKEATVPCTEILTEKKDTI [S5P], the protein stability index was 5.59.
In the case of NSISSDKEAPVPCTEILTEKKDTI [T10P], the protein stability index is reported as 5.32.
In the case of NSISSDKEARVPCTEILTEKKDTI [T10R], the protein stability index is reported as 4.85.
In the case of NSISSDKEANVPCTEILTEKKDTI [T10N], the protein stability index is reported as 5.6.
NSISSDKEADVPCTEILTEKKDTI [T10D] showed a protein stability index of 5.61.
In the case of NSISSDKEAEVPCTEILTEKKDTI [T10E], the protein stability index is reported as 5.82.
For NSISSDKEAAVPCTEILTEKKDTI [T10A], the protein stability index was 5.65.
With NSISSDKERTVPCTEILTEKKDTI [A9R] the protein stability index was 5.23.
NSISSDKEFTVPCTEILTEKKDTI [A9F] showed a protein stability index of 5.36.
For NSISSDKENTVPCTEILTEKKDTI [A9N], the protein stability index was 4.88.
Work on NSISSDKEKTVPCTEILTEKKDTI [A9K] yielded a protein stability index of 5.47.
NSISSDKEQTVPCTEILTEKKDTI [A9Q] showed a protein stability index of 5.25.
For NSISSDKETTVPCTEILTEKKDTI [A9T], the protein stability index was 5.38.
With NSISSDKNATVPCTEILTEKKDTI [E8N] the protein stability index was 5.31.
For NSISSDKYATVPCTEILTEKKDTI [E8Y], the protein stability index was 4.95.
NSISSDKFATVPCTEILTEKKDTI [E8F] gave a protein stability index of 4.93.
Variant NSISSDKDATVPCTEILTEKKDTI [E8D] has a protein stability index of 5.5.
Variant NSISSDKSATVPCTEILTEKKDTI [E8S] has a protein stability index of 5.46.
Variant NSISSDKIATVPCTEILTEKKDTI [E8I] has a protein stability index of 5.32.
NSISSDKEATVPCHEILTEKKDTI [T14H] gave a protein stability index of 5.45.
For NSISSDKEATVPCCEILTEKKDTI [T14C], the protein stability index was 5.39.
Variant NSISSDKEATVPCSEILTEKKDTI [T14S] has a protein stability index of 5.36.
For NSISSDKEATVPCIEILTEKKDTI [T14I], the protein stability index was 5.21.
For NSISSDKEATVPCQEILTEKKDTI [T14Q], the protein stability index was 5.13.
Variant NSISSDKEATVPCPEILTEKKDTI [T14P] has a protein stability index of 5.45.
NSISSDKEATVPCFEILTEKKDTI [T14F] showed a protein stability index of 4.93.
With NSISSDKEATVPCTMILTEKKDTI [E15M] the protein stability index was 4.68.
In the case of NSISSDKEATVPCTCILTEKKDTI [E15C], the protein stability index is reported as 4.8.
Variant NSISSDKEATVPCTLILTEKKDTI [E15L] has a protein stability index of 4.57.
NSISSDKEATVPCTEILMEKKDTI [T18M] showed a protein stability index of 4.89.
Work on NSISSDKEATVPCTEILIEKKDTI [T18I] yielded a protein stability index of 5.19.
In the case of NSISSDKEATVPCTEILNEKKDTI [T18N], the protein stability index is reported as 5.46.
In the case of NSISSDKEATVPCTEILFEKKDTI [T18F], the protein stability index is reported as 5.48.
NSISSDKEATVPCTEILLEKKDTI [T18L] showed a protein stability index of 5.11.
For NSISSDKEATVPCTEILREKKDTI [T18R], the protein stability index was 5.1.
Work on NSISSDKEATVPCTEILQEKKDTI [T18Q] yielded a protein stability index of 5.4.
NSISSDKEATVPCTEILWEKKDTI [T18W] gave a protein stability index of 5.05.
In the case of NSIPSDKEATVPCTEILTEKKDTI [S4P], the protein stability index is reported as 5.24.
NSIKSDKEATVPCTEILTEKKDTI [S4K] gave a protein stability index of 5.29.
Variant NSIMSDKEATVPCTEILTEKKDTI [S4M] has a protein stability index of 5.43.
NSIQSDKEATVPCTEILTEKKDTI [S4Q] gave a protein stability index of 5.63.
NSIVSDKEATVPCTEILTEKKDTI [S4V] gave a protein stability index of 5.32.
NSISSDKEATVPCTEILTMKKDTI [E19M] gave a protein stability index of 5.08.
For NSISSDKEATVPCTEILTAKKDTI [E19A], the protein stability index was 5.34.
Work on NSISSDKEATVPCTEILTIKKDTI [E19I] yielded a protein stability index of 4.72.
NSISSDKEATVPCTEILTYKKDTI [E19Y] showed a protein stability index of 5.06.
In the case of NSISSDKEATVPCTEILTSKKDTI [E19S], the protein stability index is reported as 5.3.
NSISSDKEATVPCTEILTNKKDTI [E19N] gave a protein stability index of 5.32.
In the case of NSISSDKEATVPCTEILTPKKDTI [E19P], the protein stability index is reported as 5.66.
Variant NSISSDREATVPCTEILTEKKDTI [K7R] has a protein stability index of 5.07.
NSISSDVEATVPCTEILTEKKDTI [K7V] gave a protein stability index of 4.95.
NSISSDCEATVPCTEILTEKKDTI [K7C] showed a protein stability index of 5.31.
Work on NSISSDKEATVPCTEILTEKKDTQ [I24Q] yielded a protein stability index of 5.61.
In the case of NSISSDKEATVPCTEILTEKKDTR [I24R], the protein stability index is reported as 5.36.
With NSISSDKEATVPCTEILTEKKDTD [I24D] the protein stability index was 5.72.
NSISSDKEATVPCTEILTEKKDTL [I24L] gave a protein stability index of 5.32.
For NSISSDKEATVKCTEILTEKKDTI [P12K], the protein stability index was 5.47.
Work on NSISSDKEATVHCTEILTEKKDTI [P12H] yielded a protein stability index of 5.
NSISSDKEATVTCTEILTEKKDTI [P12T] gave a protein stability index of 5.48.
NSISSDKEATVWCTEILTEKKDTI [P12W] gave a protein stability index of 4.58.
NYISSDKEATVPCTEILTEKKDTI [S2Y] showed a protein stability index of 4.49.
NMISSDKEATVPCTEILTEKKDTI [S2M] showed a protein stability index of 5.54.
With NTISSDKEATVPCTEILTEKKDTI [S2T] the protein stability index was 5.1.
With NEISSDKEATVPCTEILTEKKDTI [S2E] the protein stability index was 5.67.
Variant NSISSDKEATVPCTEILTEKSDTI [K21S] has a protein stability index of 5.37.
For NSISSDKEATVPCTEILTEKPDTI [K21P], the protein stability index was 5.36.
Work on NSISSDKEATVPCTEILTEKQDTI [K21Q] yielded a protein stability index of 5.
With NSISSDKEATVPCTEILTEKKRTI [D22R] the protein stability index was 4.89.
Variant NSISSDKEATVPCTEILTEKKETI [D22E] has a protein stability index of 5.6.
For NSISSDKEATVPATEILTEKKDTI [C13A], the protein stability index was 5.27.
With NSISSDKEATVPKTEILTEKKDTI [C13K] the protein stability index was 5.4.
NSISSDKEATVPMTEILTEKKDTI [C13M] gave a protein stability index of 5.59.
In the case of NSFSSDKEATVPCTEILTEKKDTI [I3F], the protein stability index is reported as 5.38.
With NSHSSDKEATVPCTEILTEKKDTI [I3H] the protein stability index was 5.43.
